Measured values reported in patent publication US12539335B2, “Tricyclic polypeptide conjugated drug and use thereof” (CONJUSTAR (ZHUHAI) BIOLOGICS CO., LTD., priority 2021, dated 2026).
Structures can show the parent of a compound that is named as a salt. Starred links: 1 amine or outer side, 2 acyl side, 3 side chain; linkers in the order of their positions; H or OH if unused. Positions of bridges follow the written chain, without caps; N, C: chain ends. Non-standard residues stand in square brackets, D forms with d. Residues, ends and D or L forms follow the SMILES beside them. Chains are numbered I, II in the order given. *: point of attachment. TATA = O=C(CC[*:1])N1CN(C(=O)CC[*:2])CN(C(=O)CC[*:3])C1; Dolaproine = CO[C@@H]([C@@H]1CCCN1)[C@@H](C)C(=O)O; Dil = CC[C@H](C)[C@H](NC)[C@@H](CC(=O)O)OC; 1Nal = N[C@@H](Cc1cccc2ccccc12)C(=O)O; X2 = O=C(CCCC(=O)[*:2])NCCC(=O)[*:1]; PABC = O=C(OCc1ccc(N[*:1])cc1)[*:2]; X1 = C[C@@H](N*)[C@@H](O)c1ccccc1; Hyp = O=C(O)[C@@H]1C[C@@H](O)CN1; hArg = N=C(N)NCCCC[C@H](N)C(=O)O; Cit = NC(=O)NCCC[C@H](N)C(=O)O; Pen = CC(C)(S)[C@H](N)C(=O)O; NMeV = CN[C@H](C(=O)O)C(C)C; Sar = CNCC(=O)O

How the values were obtained:
[1] = Metabolic stability in kidney S9, humans; format: in vitro ADME; settings: human
Method: (§1) Test Example 8: Metabolic Stability of the Compounds of the Present Invention in Kidney S9 from Mice, Rats, Cynomolgus Macaques, and Humans
(§2) To investigate the metabolic stability of the compounds of the present invention in kidney S9 from mice, rats, Cynomolgus macaques, and humans.
(§3) Materials: Kidney S9 from CD-1 mice, SD rats, Cynomolgus macaques, and humans were purchased from BioIVT or XenoTech LLC and stored in a −80° C. refrigerator.
(§4) Experimental procedure: Eight 96-well plates, designated T0, T5, T15, T30, T45, T60, Blank, and NCF60, were prepared. The first six incubation plates corresponded to reaction time points of 0, 5, 15, 30, 45, and 60 minutes, respectively. No test sample or control compound was added to the Blank plate.
(§5) The T0, T5, T15, T30, T45, and T60 plates were added with a 2 μL working solution of the test sample (10 mM of a solution of the compound to be tested in DMSO, diluted to 100 μM with 100% acetonitrile) and 100 μL of a S9 working solution (kidney S9 protein concentration of 1.0 mg/mL), and the Blank plate was only added with the S9 working solution. The above incubation plates were then placed in a 37° C. water bath for pre-incubation for about 10 minutes.
(§6) At the end of the pre-incubation, 98 μL of an auxiliary enzyme working solution was added to each sample well except the TO plate to start the reaction. […]

[2] = Pharmacokinetic analysis in Cynomolgus macaque plasma; format: in vivo; settings: cynomolgus monkey, Cynomolgus macaques, single IV 1 mg/kg, plasma
Method: Test Example 6: Pharmacokinetic Analysis in Cynomolgus Macaque Plasma
To test the pharmacokinetics of the compounds of the present invention in Cynomolgus macaques.
The pharmacokinetic characteristics of the compound after intravenous injection were tested according to a standard protocol in Cynomolgus macaques. The compound to be tested was formulated into a clear solution using 25 mM L-histidine (pH=7) in 10% sucrose as a vehicle. Cynomolgus macaques were given a single intravenous injection of 1 mg/kg of the compound to be tested. Whole blood was collected at time points of 0.083, 0.25, 0.5, 1, 2, 4, 8, and 24 hours after administration to get plasma. The concentration of the compound to be tested and the concentration of its potential metabolite MMAE were analyzed by the LC-MS/MS method, and the pharmacokinetic parameters were calculated by Phoenix WinNonlin software.

[3] = Stability in plasma, SD rats; format: in vitro ADME; settings: Sprague-Dawley (SD), rat, 37° C.
Method: (§7) Test Example 9: Stability Analysis of the Compounds of the Present Invention in Plasma from Different Species
(§8) To test the stability of the compounds of the present invention in plasma from SD rats, Cynomolgus macaques, and humans.
(§9) The corresponding incubation plates, including T0, T10, T30, T60, T120, and T240 incubation plates, were added with a 2 μL working solution of the compound to be tested (100 μM). Three parallel wells were prepared for each sample. Then, 98 μL of blank plasma from SD rats, Cynomolgus macaques, and humans was added to the corresponding incubation plates to which the working solution had been added. All samples were incubated in a 37° C. water bath. […] At the end of each incubation time point, the corresponding incubation plate was removed, added with stop buffer, precipitated, and centrifuged for 20 minutes. Then, 150 μL of the supernatant was analyzed by the LC-MS/MS method. The concentration of the compound to be tested in the sample was semi-quantitatively determined by the liquid chromatography-tandem mass spectrometry (LC-MS/MS) method.

[4] = Metabolic stability in kidney S9, SD rats; format: in vitro ADME; settings: Sprague-Dawley (SD), rat
Method: as §1, §2, §3, §4, §5, §6

[5] = Stability in plasma, Cynomolgus macaques; format: in vitro ADME; settings: cynomolgus macaque, 37° C.
Method: as §7, §8, §9

## CC[C@H](C)[C@@H]([C@@H](CC(=O)N1CCC[C@H]1[C@H](OC)[C@@H](C)C(=O)N[C@H](C)[C@@H](O)c1ccccc1)OC)N(C)C(=O)[C@@H](NC(=O)[C@H](C(C)C)N(C)C(=O)OCc1ccc(NC(=O)[C@H](CCCNC(N)=O)NC(=O)[C@@H](NC(=O)CCCC(=O)NCCC(=O)N(C)CC(=O)N(C)CC(=O)N(C)CC(=O)N(C)CC(=O)N(C)CC(=O)N(C)CC(=O)N(C)CC(=O)N(C)CC(=O)N(C)CC(=O)N(C)CC(=O)N[C@H]2CCCCNC(=O)C[C@@H](C(=O)N[C@H]3CSCCC(=O)N4CN5CN(C4)C(=O)CCSC(C)(C)[C@H](NC(=O)[C@@H](CC(=O)O)NC(=O)[C@H](Cc4cccc6ccccc46)NC(=O)[C@@H]4CCCN4C3=O)C(=O)N[C@@H](CCSC)C(=O)N[C@@H](CCCCNC(=N)N)C(=O)N[C@@H](CC(=O)O)C(=O)N[C@@H](Cc3c[nH]c4ccccc34)C(=O)N[C@@H](CO)C(=O)N[C@@H]([C@@H](C)O)C(=O)N3CCC[C@H]3C(=O)N3C[C@H](O)C[C@H]3C(=O)N[C@@H](Cc3c[nH]c4ccccc34)C(=O)N[C@H](C(N)=O)CSCCC5=O)NC(=O)CN(C)C2=O)C(C)C)cc1)C(C)C [Acetate salt of PDC_2] (I: [Sar][Sar][Sar][Sar][Sar][Sar][Sar][Sar][Sar][Sar]K[Sar]DCP[1Nal][dD][Pen]M[hArg]DWSTP[Hyp]WC-NH2 / II: V[Cit][PABC][NMeV]V[Dil][Dolaproine]-X1; lactam I:11-I:13; linker I:14-I:18-I:28 via TATA; linker I:N-II:N via X2)
[1]
  half-life at 1 μM: > 2.42 h
  microsomal CLint at 1 μM: < 9.6 µL/min/mg
[2]
  AUC(0-t): 1 µM·h
  C0: 3.1 µM
  clearance: 3.6 mL/min/kg
  half-life: 1.5 h
[2]; read-out: Vdss
  Vd: 0.2 L/kg
[3]
  half-life at 2 μM: > 9.63 h
[4]
  half-life at 1 μM: > 2.42 h
  microsomal CLint at 1 μM: < 9.6 µL/min/mg
[5]
  half-life at 2 μM: > 9.63 h
